From patent US6872703B2, “Insulin receptor-related receptor binding protein” (Ajinomoto Co., Inc., priority 2000, dated 2005)

T1: insulin receptor-related receptor (IRR), IRR-Fc fusion protein (extracellular region of mouse IRR) (Mus musculus, UniProt Q9WTL4)
T1 construct: with an extracellular region of mouse IRR (1-920th residues); made in house; host or cells: CHO cells
T1 sequence (Q9WTL4 27-920): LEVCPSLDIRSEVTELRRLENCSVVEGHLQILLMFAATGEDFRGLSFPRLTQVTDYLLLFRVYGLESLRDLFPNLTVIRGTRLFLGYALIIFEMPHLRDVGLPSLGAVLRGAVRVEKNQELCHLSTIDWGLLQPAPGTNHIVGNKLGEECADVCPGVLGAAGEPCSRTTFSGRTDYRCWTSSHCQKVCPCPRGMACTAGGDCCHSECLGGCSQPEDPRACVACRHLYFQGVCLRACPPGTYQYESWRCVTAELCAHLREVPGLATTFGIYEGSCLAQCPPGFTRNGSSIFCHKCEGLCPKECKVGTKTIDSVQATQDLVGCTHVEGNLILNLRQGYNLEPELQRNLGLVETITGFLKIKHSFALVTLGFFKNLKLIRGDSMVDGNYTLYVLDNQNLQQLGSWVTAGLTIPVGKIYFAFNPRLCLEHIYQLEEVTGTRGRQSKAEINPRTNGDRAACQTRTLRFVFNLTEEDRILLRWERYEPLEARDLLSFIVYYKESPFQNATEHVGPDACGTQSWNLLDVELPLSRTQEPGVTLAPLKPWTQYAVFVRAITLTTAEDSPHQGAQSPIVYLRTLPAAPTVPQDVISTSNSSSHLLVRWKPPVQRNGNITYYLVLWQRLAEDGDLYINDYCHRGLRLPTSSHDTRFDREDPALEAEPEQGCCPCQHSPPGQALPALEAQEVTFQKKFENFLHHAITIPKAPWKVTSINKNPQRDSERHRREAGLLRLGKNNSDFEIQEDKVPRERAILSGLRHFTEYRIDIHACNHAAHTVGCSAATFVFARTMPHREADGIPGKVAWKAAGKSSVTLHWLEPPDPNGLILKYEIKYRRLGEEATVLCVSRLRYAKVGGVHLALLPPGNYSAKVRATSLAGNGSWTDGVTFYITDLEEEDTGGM

B1: Peak 1: Re-purified IRR ligand fraction from rat C6 cell supernatant; proteins of molecular weights 6250 and 6321, SEQ ID NOS: 5 and 6 (epithelin/granulin) (protein, listed as Mus musculus)
chain 1: DIGCDQHTSCPVGQTCCPSLKGSWACCQLPHAVCCEDRQHCCPAGYTCNVKARTCEKN
chain 2: DIGCDQHTSCPVGQTCCPSLKGSWACCQLPHAVCCEDTQHCCPAGYTCNVKARTCEKDA

Legend:
IRR = IRR (Homo sapiens, UniProt P14616); settings: literature report; cited from earlier work
IRR, sequence (P14616 27-742 limits assumed, species assumed): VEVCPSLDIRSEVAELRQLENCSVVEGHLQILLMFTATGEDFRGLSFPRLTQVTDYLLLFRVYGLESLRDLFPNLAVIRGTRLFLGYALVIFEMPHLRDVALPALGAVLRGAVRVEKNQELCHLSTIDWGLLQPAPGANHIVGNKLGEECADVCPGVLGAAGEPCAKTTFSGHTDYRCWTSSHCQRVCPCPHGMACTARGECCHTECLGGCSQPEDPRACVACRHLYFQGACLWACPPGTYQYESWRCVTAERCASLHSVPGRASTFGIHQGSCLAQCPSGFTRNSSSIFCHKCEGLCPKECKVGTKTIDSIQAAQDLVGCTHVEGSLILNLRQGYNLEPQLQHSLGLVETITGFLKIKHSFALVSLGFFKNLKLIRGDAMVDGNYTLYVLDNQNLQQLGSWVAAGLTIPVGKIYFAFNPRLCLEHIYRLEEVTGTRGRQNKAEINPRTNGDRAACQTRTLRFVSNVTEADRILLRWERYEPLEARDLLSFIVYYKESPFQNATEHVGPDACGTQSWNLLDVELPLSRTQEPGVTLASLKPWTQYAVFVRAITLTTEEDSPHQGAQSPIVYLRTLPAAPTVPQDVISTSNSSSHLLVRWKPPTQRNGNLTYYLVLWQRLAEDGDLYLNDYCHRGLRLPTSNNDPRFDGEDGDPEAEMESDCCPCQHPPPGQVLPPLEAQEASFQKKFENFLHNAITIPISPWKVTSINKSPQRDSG
IRR, sequence (P14616 747-1297 limits assumed, species assumed): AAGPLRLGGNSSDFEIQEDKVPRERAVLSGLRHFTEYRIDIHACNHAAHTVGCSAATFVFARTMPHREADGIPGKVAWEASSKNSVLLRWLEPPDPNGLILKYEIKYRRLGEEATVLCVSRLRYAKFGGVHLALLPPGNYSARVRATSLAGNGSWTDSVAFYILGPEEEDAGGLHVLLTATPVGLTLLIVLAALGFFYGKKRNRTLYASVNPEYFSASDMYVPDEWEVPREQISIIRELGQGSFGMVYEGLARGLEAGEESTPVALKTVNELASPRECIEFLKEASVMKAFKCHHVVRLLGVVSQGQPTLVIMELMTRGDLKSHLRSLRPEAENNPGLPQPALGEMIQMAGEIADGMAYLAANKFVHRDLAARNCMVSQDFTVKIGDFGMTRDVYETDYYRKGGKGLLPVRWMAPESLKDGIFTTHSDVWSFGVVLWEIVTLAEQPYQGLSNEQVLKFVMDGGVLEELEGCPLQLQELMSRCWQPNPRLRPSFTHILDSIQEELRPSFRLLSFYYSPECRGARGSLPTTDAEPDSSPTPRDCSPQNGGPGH

[1] = molecular target: T1, insulin receptor-related receptor (IRR), IRR-Fc fusion protein (extracellular region of mouse IRR); experiment: IRR binding activity by surface plasmon resonance (BIACORE 2000), IRR-Fc binding value minus IR-Fc binding value; settings: about 1/10 amount of each re-purified specimen (about 10 μg) lyophilized and dissolved in 200 μl of buffer; IR-Fc binding value subtracted from IRR-Fc binding value
Description: Determination of active fractions in the purification of the IRR ligand from a supernatant of cells expressing the IRR ligand including the rat C6 glioma cells or identification of granulins/epithelins or mutants thereof as IRR ligands can be carried out by measuring activity for binding to IRR in a sample. The binding activity to IRR of a sample specimen can be measured by using a surface plasmon resonance (SPR) measuring apparatus, for example, BIACORE (produced by Biacore). Specifically, for example, the extracellular domain of IRR is prepared as a soluble protein and immobilized on a surface of a BIACORE sensor chip. A sample specimen is sent onto the surface of the sensor chip via a micro flow system at a constant flow rate. If a molecule binding to IRR (IRR ligand) is contained in the sample specimen, the mass of the surface sensor chip is increased due to binding between IRR and IRR ligand molecules, and a shift of the SPR signal in proportion to the binding quantity can be detected as a change in the resonance unit (RU). […] When, for example, an insulin receptor (IR) protein is used as a protein other than IRR, IRR-binding activity can be measured more precisely. […]

Molecule	binding to IRR (IRR)	binding activity (IRR-specific binding value, SPR resonance units) [1]
insulin	cannot bind to IRR	–
insulin-like growth factor (IGF)-1 [IGF-1]	cannot bind to IRR	–
Peak 2: Re-purified IRR ligand fraction from rat C6 cell supernatant; protein of molecular weight 6135, SEQ ID NO: 4 (epithelin/granulin) (IGCDQHTSCPVGQTCCPSLKGSWACCQLPHAVCCEDRQHCCPAGYTCNVKARTCEKQ; listed as Mus musculus)	–	21 RU
B1	–	13 RU
